This note sets out measurements from patent publication US8524444.

The target in data set [1] is T1, polypeptide 4.1, FITC(Aha)STPVSSANMK (wt CK2-derived peptide).
T1 chain: STPVSSANMK

Data set [2] deals with T2, polypeptide 4.2, FITC(Aha)STPFSSANMK (V→F).
T2 chain: STPFSSANMK

For data set [3], the target named is T3, polypeptide 4.4, FITC(Aha)STPVSFANMK (S→F).
T3 chain: STPVSFANMK

The target in data set [4] is T4, polypeptide 4.5, FITC(Aha)STPVSRANMK (S→R).
T4 chain: STPVSRANMK

Data set [5] has as its target T5, polypeptide 4.3, FITC(Aha)STPRSSANMK (V→R).
T5 chain: STPRSSANMK

Data set [6] deals with T6, polypeptide 4.8, FITC(Aha)STPVSRANMK(DEAC), unglycosylated.
T6 chain: STPVSRANMK

The target of data set [7] is T7, polypeptide 4.6, FITC(Aha)STPVSSANMK(DEAC), unglycosylated.
T7 chain: STPVSSANMK

B1: O-Linked N-acetylglucosaminyltransferase (OGT) (protein)
chain: MHYKEAIRISPTFADAYSNMGNTLKEMQDVQGALQCYTRAIQINPAFADAHSNLASIHKDSGNIPEAIASYRTALKLKPDFPDAYCNLAHCLQIVCDWTDYDERMKKLVSIVADQLEKNRLPSVHPHHSMLYPLSHGFRKAIAERHGNLCLDKINVLHKPPYEHPKDLKLSDGRLRVGYVSSDFGNHPTSHLMQSIPGMHNPDKFEVFCYALSPDDGTNFRVKVMAEANHFIDLSQIPCNGKAADRIHQDGIHILVNMNGYTKGARNELFALRPAPIQAMWLGYPGTSGALFMDYIITDQETSPAEVAEQYSEKLAYMPHTFFIGDHANMFPHLKKKAVIDFKSNGHIYDNRIVLNGIDLKAFLDSLPDVKIVKMKCPDGGDNADSSNTALNMPVIPMNTIAEAVIEMINRGQIQITINGFSISNGLATTQINNKAATGEEVPRTIIVTTRSQYGLPEDAIVYCNFNQLYKIDPSTLQMWANILKRVPNSVLWLLRFPAVGEPNIQQYAQNMGLPQNRIIFSPVAPKEEHVRRGQLADVCLDTPLCNGHTTGMDVLWAGTPMVTMPGETLASRVAASQLTCLGCLELIAKNRQEYEDIAVKLGTDLEYLKKVRGKVWKQRISSPLFNTKQYTMELERLYLQMWEHYAAGNKPDHMIKPVEVTESA
As to B1, the Relative rate of glycosylation in data set [1] turned out to be 1; in data set [2], 0.15; in data set [3], 0.4; in data set [4], 0.7; in data set [5], 0.

B2: Proteinase K (protein)
chain: AAQTNAPWGLARISSTSPGTSTYYYDESAGQGSCVYVIDTGIEASHPEFEGRAQMVKTYYYSSRDGNGHGTHCAGTVGSRTYGVAKKTQLFGVKVLDDNGSGQYSTIIAGMDFVASDKNNRNCPKGVVASLSLGGGYSSSVNSAAARLQSSGVMVAVAAGNNNADARNYSPASEPSVCTVGASDRYDRRSSFSNYGSVLDIFGPGTSILSTWIGGSTRSISGTSMATPHVAGLAAYLMTLGKTTAASACRYIADTANKGDLSNIPFGTVNLLAYNNYQA
For B2, the “rate of proteolysis, unglycosylated against glycosylated polypeptide” value in data set [6] and in data set [7] was “˜100-500 times faster” in each case.
